Where two headings read alike, the source gives them in different places. Values belong to the binder of their own block, whether it stands above or below them.
Experiments:
Aurora A kinase [1] = biological target: T1, Aurora A kinase (human, UniProt O14965 122-403, limits assumed); test: yeast display titration of the clone with wild type Aurora A, mean fluorescence
T1 construct: also called AurA; deP AurA
T1 sequence: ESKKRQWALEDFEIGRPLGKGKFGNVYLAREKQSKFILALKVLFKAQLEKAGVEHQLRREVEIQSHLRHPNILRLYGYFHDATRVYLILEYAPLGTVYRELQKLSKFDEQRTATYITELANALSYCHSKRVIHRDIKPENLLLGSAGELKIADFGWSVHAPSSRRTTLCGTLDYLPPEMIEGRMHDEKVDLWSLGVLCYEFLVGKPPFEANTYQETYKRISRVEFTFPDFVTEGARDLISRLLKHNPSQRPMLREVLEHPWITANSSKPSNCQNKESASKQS

Aurora A kinase [2] = biological target: T1, Aurora A kinase; test: isothermal titration calorimetry with dephosphorylated Aurora A (deP AurA)
Y199H = biological target: T2, Y199H; test: yeast display, single point with Y199H Aurora A, mean fluorescence
T2 construct: also called Y199H mutant Aurora A; Y199H Aurora A hotspot mutant
T2 chain: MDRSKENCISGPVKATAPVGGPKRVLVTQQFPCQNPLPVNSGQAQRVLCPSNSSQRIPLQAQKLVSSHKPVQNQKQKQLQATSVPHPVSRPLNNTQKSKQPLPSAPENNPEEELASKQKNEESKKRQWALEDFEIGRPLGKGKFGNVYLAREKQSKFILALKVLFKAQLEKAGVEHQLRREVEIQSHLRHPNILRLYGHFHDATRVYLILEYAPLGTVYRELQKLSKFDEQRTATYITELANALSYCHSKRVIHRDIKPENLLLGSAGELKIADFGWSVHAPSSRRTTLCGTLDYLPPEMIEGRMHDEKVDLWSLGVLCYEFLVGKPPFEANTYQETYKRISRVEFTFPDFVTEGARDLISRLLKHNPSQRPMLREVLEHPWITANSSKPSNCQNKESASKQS

Aurora A kinase [3] = biological target: T1, Aurora A kinase; test: isothermal titration calorimetry with dephosphorylated Aurora A (deP AurA); remark: listed apart in the source
Y199K = biological target: T3, Y199K; test: yeast display, single point with Y199K Aurora A, mean fluorescence
T3 construct: also called Y199K mutant Aurora A; Y199K Aurora A hotspot mutant
T3 chain: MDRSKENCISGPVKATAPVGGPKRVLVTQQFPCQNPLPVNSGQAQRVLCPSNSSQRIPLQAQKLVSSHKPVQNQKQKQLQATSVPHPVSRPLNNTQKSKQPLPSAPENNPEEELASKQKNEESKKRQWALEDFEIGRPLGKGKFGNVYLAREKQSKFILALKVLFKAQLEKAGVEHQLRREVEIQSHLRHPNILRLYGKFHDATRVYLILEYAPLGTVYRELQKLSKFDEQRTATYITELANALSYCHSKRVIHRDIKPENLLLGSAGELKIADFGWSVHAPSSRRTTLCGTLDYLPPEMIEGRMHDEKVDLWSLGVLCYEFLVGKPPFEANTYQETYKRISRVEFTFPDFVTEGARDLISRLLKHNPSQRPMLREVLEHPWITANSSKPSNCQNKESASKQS

Aurora A kinase [4] = biological target: T1, Aurora A kinase; test: isothermal titration calorimetry with dephosphorylated Aurora A (deP AurA); design: dS: unit not given here
Aurora A kinase [5] = biological target: T1, Aurora A kinase; test: isothermal titration calorimetry; Mb60 alone, not the sGFP fusion (FIG. 6C)
Aurora A kinase [6] = biological target: T1, Aurora A kinase; test: isothermal titration calorimetry with dephosphorylated Aurora A (deP AurA); design: dS: unit not given here; remark: listed apart in the source
Aurora A kinase [7] = biological target: T1, Aurora A kinase; test: isothermal titration calorimetry
Aurora A kinase [8] = biological target: T1, Aurora A kinase; test: isothermal titration calorimetry with dephosphorylated Aurora A (deP AurA); remark: listed apart in the source
Aurora A kinase [9] = biological target: T1, Aurora A kinase; test: as above; remark: listed apart in the source
Aurora A kinase [10] = biological target: T1, Aurora A kinase; test: method not stated; told in the isothermal titration calorimetry paragraph

B1: monobody Mb2 (designed binder)
chain: SVSSVPTKLEVVAATPTSLLISWDAFGHQYEPVYYYRITYGETGGNSPVQEFTVPGYYSTATISGLKPGVDYTITVYAWYVDGSYSSPISINYRT
notes: Monobody on a fibronectin type III (FN3) scaffold; also called AuroraA_2
- Kd (Aurora A kinase [1]): 16.7 nM
- Kd (Aurora A kinase [2]): 8.7 nM
- dH (Aurora A kinase [2]): -16.1 kcal/mol
- dS (Aurora A kinase [2]): -71.6 J/mol*K
- n (Aurora A kinase [2]): 1.02
- binding result (Y199H): no binding (tested: 2000 (axis unit not printed))

B2: monobody Mb44 (designed binder)
chain: SVSSVPTKLEVVAATPTSLLISWDAPAVTVDFYVITYGETGGYSYPWQEFEVPGSKSTATISGLKPGVDYTITVYADYGQYFYSPISINYRT
notes: Monobody on a fibronectin type III (FN3) scaffold; also called AuroraA_44
- Kd (Aurora A kinase [3]): 2600 nM
- dH (Aurora A kinase [3]): -13.7 kcal/mol
- dS (Aurora A kinase [3]): -84.9 J/mol*K
- n (Aurora A kinase [3]): 1.06
- Kd (Aurora A kinase [1]): 42 nM

B6: monobody Mb54 (designed binder)
chain: SVSSVPTKLEVVAATPTSLLISWDAQTYQMYDYVSYYRITYGETGGNSPVQEFTVPGYYSTATISGLKPGVDYTITVYAEGYYSSYSPISINYRT
notes: Monobody on a fibronectin type III (FN3) scaffold; also called AuroraA_54
- Kd (Aurora A kinase [1]): 81 nM
- Kd (Aurora A kinase [8]): 175000 nM
- dH (Aurora A kinase [8]): -24.2 kcal/mol
- dS (Aurora A kinase [8]): -210 J/mol*K
- n (Aurora A kinase [8]): 0.92
- binding result (Y199H): no binding (tested: 2000 (axis unit not printed))

Binder: MSQVKSSYSYDAPSDFINFSSLDDEGDTQNIDSWFEEKANLENKL (other, also called TPX2 polypeptide) [TPX2]
- Kd (Aurora A kinase [10]): 50000 nM

Further lines, with some results ahead:

- Kd (Aurora A kinase [1]): 60 nM
- Kd (Aurora A kinase [4]): 163 nM
- dH (Aurora A kinase [4]): -10.1 kcal/mol
- dS (Aurora A kinase [4]): -29.1
- n (Aurora A kinase [4]): 0.94
B3: monobody Mb56 (designed binder)
chain: SVSSVPTKLEVVAATPTSLLISWDAMSDWYYWVDYYRITYGETGGNSPVQEFTVPGSYSTATISGLKPGVDYTITVYASDDVWGDYSPISINYRT
notes: Monobody on a fibronectin type III (FN3) scaffold; also called AuroraA_56
- binding result (Y199K): no binding (tested: 2000 (axis unit not printed))

- Kd (Aurora A kinase [1]): 25 nM
- Kd (Aurora A kinase [5]): ~1000 nM
- Kd (Aurora A kinase [6]): 1200 nM
- dH (Aurora A kinase [6]): -31.9 kcal/mol
- dS (Aurora A kinase [6]): -334
- n (Aurora A kinase [6]): 0.92
B4: monobody Mb60 (designed binder)
chain: SVSSVPTKLEVVAATPTSLLISWDAPAVTVVHYVITYGETGGNSPVQEFTVPGSKSTATISGLKPGVDYTITVYAIDFYWGSYSPISINYRT
notes: Monobody on a fibronectin type III (FN3) scaffold; also called AuroraA_60
- binding result (Y199K): no binding (tested: 2000 (axis unit not printed))

- Kd (Aurora A kinase [7]): ~9900 nM
B5: monobody Mb60 fused to supercharged GFP (designed binder)
chain: SVSSVPTKLEVVAATPTSLLISWDAPAVTVVHYVITYGETGGNSPVQEFTVPGSKSTATISGLKPGVDYTITVYAIDFYWGSYSPISINYRT
notes: also called sGFP-Mb60; not shown: supercharged green fluorescent protein

- Kd (Aurora A kinase [1]): 6 nM
- Kd (Aurora A kinase [9]): 27.4 nM
- dH (Aurora A kinase [9]): -9.11 kcal/mol
- dS (Aurora A kinase [9]): -16.9 J/mol*K
- n (Aurora A kinase [9]): 0.93
B7: monobody Mb51 (designed binder)
chain: SVSSVPTKLEVVAATPTSLLISWDAKPMSYEPVYYYRITYGETGGNSPVQEFTVPGYYSTATISGLKPGVDYTITVYADSMSSYYYSPISINYRT
notes: Monobody on a fibronectin type III (FN3) scaffold; also called AuroraA_51
- binding result (Y199K): no binding (tested: 2000 (axis unit not printed))

— US20180334510A1 (BRANDEIS UNIVERSITY, published 2018)
